Article PMC4896055 (The Journal of Cell Biology, 2016)

B1: Recombinant Mdm36, His6-T7-Mdm36 (natural protein)
chain: MDENGTVKPGYELKGLNSGNSRSNMDKDPIVSKFHRAGLNDSADEEDTDINGNRNTSWITSMISEEKRKVEGKSMLNDEEDLHLSKATLNKCDALVKILADIIKLEFVIHQSWYIRSLHKSVLIQFEVETSGGNKNSAGDSGDDDDDNHNGNLDDSFYKDLSLKCIKKCEKSSLALESLSRDIDQIRDFIMSNTIEDNRVDRLLQNSMTLLLECWIYSMKRLRRLRMKIAGIFVRSKLLLIDHELVTIWHFLQEQNEHETVNNENELKLAETIKSYRAFIKIFIQQLEDSESGSPSSSLFEECLHVFLDIESMYNSLNLNWLLNENKALQERLLSPSSTSENDHTNNLPVIDETKEIEDISSFVNSIVDASMLTHDLTPINSSDSDNLSNGEIDRLDGRRLSSSTSDMSLMMQRTSLQKQLPSLLTAFNNARRLEQELQNACKVNDNKHSTKDTDSNIRRNEHAMSSSVSSIISQNSTLASPSPPMSSSFISTAPSQSSSRMSTLPLSPSSSLLESQSQTLKNNMSQWLNQSRSGLNGTKLIPTNHIGFHSNVLNTLYGIGGGPVSKSYKSNQPSSQNT

What was measured:
[1] = biological target: B1; assay: co-sedimentation
SEC-MALS = biological target: the molecule itself; assay: SEC-MALS

Binder | binding result [1] | stoichiometry N (SEC-MALS)
Recombinant Num1CC (amino acids 97-294), His6-T7-Num1CC (domain or fragment) MNFTLELSENLLVECRKLQSSNEAKNEQIKSLKQIKESLSDKIEELTNQKKSFMKELDSTKDLNWDLESKLTNLSMECRQLKELKKKTEKSWNDEKESLKLLKTDLEILTLTKNGMENDLSSQKLHYDKEISELKERILDLNNENDRLLISVSDLTSEINSLQSNRTERIKIQKQLDDAKASISSLKRKVQKKYYQKQ | binds | 2
Recombinant Num1CC^3E (K121E + R262E + R265E), His6-T7-Num1CC^3E (domain or fragment) MNFTLELSENLLVECRKLQSSNEAENEQIKSLKQIKESLSDKIEELTNQKKSFMKELDSTKDLNWDLESKLTNLSMECRQLKELKKKTEKSWNDEKESLKLLKTDLEILTLTKNGMENDLSSQKLHYDKEISELKERILDLNNENDRLLISVSDLTSEINSLQSNETEEIKIQKQLDDAKASISSLKRKVQKKYYQKQ | binds | 
B1 |  | 2
